Results: patent US20130230533A1 (Regeneron, published 2013)

T1: human CD48 (on primary human peripheral blood mononuclear cells) (human, UniProt P09326 27-220)
T1 sequence: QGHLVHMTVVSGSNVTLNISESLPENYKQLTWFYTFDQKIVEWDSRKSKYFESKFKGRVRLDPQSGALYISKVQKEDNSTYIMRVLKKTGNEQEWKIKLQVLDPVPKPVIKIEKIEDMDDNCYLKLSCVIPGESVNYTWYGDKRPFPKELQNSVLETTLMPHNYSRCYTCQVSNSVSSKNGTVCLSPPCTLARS

T2: monomeric monkey CD48 expressed with a tag consisting of 2 myc and one 6-His epitopes (monkey)
T2 construct: also called mfCD48-mmH; Monomeric monkey CD48-mmH
T2 chain: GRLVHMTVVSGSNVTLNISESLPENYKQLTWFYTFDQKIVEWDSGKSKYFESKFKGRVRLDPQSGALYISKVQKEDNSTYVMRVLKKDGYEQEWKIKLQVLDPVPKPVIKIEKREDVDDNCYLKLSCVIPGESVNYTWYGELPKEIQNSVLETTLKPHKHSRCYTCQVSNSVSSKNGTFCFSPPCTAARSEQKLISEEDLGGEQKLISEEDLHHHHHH

T3: biotinylated dimeric human CD48 protein expressed as a fusion with mouse IgG2a Fc (human, biotinylated)
T3 construct: also called bio-hCD48-mFc; Dimeric human CD48-mFc
T3 chain: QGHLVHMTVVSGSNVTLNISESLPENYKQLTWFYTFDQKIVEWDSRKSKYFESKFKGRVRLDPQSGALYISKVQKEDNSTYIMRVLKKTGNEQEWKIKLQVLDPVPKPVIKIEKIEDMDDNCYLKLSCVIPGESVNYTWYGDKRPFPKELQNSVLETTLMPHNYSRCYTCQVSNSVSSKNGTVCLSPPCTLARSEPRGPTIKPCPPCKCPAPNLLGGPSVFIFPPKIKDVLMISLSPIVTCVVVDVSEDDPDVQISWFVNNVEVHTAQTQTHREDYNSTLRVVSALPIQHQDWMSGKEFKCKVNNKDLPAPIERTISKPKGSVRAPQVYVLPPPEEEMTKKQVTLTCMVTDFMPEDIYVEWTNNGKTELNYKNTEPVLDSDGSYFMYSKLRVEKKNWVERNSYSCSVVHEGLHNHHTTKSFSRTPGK


Assays:
[1] = target: T1, human CD48 (on primary human peripheral …); assay: cell-based or functional assay
[2] = target: T1, human CD48 (on primary human peripheral …); assay: cell-based or functional assay; remark: listed apart in the source
[3] = target: T2, monomeric monkey CD48 expressed with a …; assay: competition ELISA; blocks mfCD48-mmH binding to coated h2B4-hFc
Method: (§1) The ability of human anti-CD48 monoclonal antibodies to block human CD48 and monkey CD48 binding to the human cognate ligand, human 2B4, was measured using a competition sandwich ELISA (Table 8). Constant amounts of biotinylated dimeric human CD48 protein expressed as a fusion with mouse IgG2a Fc (“bio-hCD48-mFc” [SEQ ID NO: 387]) or monomeric monkey CD48 expressed with a tag consisting of 2 myc and one 6-His epitopes (“mfCD48-mmH” [SEQ ID NO: 386]) were separately titrated with varying amounts of antibodies. These antibody-protein complexes were incubated (1 hr, 25° C.) before being transferred to microtiter plates coated with a dimeric construct expressing the human 2B4 receptor fused to a either human IgG1 (h2B4-hFc [R&D Systems, Inc., Minneapolis, Minn., Cat. No. 1039-2B]) or mouse IgG2a Fc (h2B4-mFc [SEQ ID NO: 389). After a 1 hr at 25° C. the wells were washed and bound human CD48 was detected with streptavidin conjugated with horse-radish peroxidase (HRP), and monkey CD48 was detected with an HRP conjugated anti-myc polyclonal antibody. The ELISA was developed with a TMB solution to produce a colorimetric reaction and quenched with sulfuric acid before reading absorbance at 450 nm on a Victor X5 plate reader. Sigmoidal dose response curves were fit to the data using Prism™ software. […] (Tables 8 and 9, NB=no binding observed)

[4] = target: T2, monomeric monkey CD48 expressed with a …; assay: competition ELISA; blocks mfCD48-mmH binding to coated h2B4-mFc
Method: as §1

[5] = target: T3, biotinylated dimeric human CD48 protein …; assay: competition ELISA; blocks bio-hCD48-mFc binding to coated h2B4-hFc
Method: as §1

[6] = target: T3, biotinylated dimeric human CD48 protein …; assay: competition ELISA; blocks bio-hCD48-mFc binding to coated h2B4-mFc
Method: as §1

Row | Binder | Inhibition of IFN-gamma Release IC50; Donor 1 [1] [Molar] | Inhibition of IFN-gamma Release IC50; Donor 2 [1] [Molar] | Inhibition of IFN-gamma Release IC50; Donor 3 [1] [Molar] | Inhibition of IFN-gamma Release IC50; Donor 4 [1] [Molar] | Inhibition of IFN-gamma Release IC50; Donor 5 [1] [Molar] | Inhibition of IFN-gamma Release IC50; Donor 6 [2] [Molar] | Inhibition of IFN-gamma Release IC50; Donor 7 [2] [Molar] | IC50 [3] [nM] | IC50 [4] [nM] | IC50 [5] [nM] | IC50 [6] [nM]
1 | H2M1763N (antibody, mouse IgG2, V domains shown, Human variable domains, mouse IgG2 Fc (H2M)) VH: QIQLVQSGAEMKRPGTSVKVSCKASGYTFTSYGINWVRQAPGQGLEWMGWISAYNGDTNYAQKLQGRVTMTTDTSTTTAYMEVRSLRSDDTAVYYCARFLTGTKDYYYGMDVWGQGTTVTVSS VL: DIQMTQSPSSLSASVGDRVTITCQASQDISNFLNWYQQKPGKAPDLLINDASILETGVPSRFSGSGSGTDFTLTINNLQPEDIATYYCQQYDNLPLTFGGGTKVEIK | 4.9e-11 | 3.4e-11 | 1.3e-10 | 7.5e-11 | 1.9e-11 | 2.6e-11 | 1.8e-11 | 0.013 | 0.0023 | 0.0088 | 0.0055
2 | H2M1710N (antibody, mouse IgG2, V domains shown, Human variable domains, mouse IgG2 Fc (H2M)) VH: QVQLVQSGADMKKPGASVRVSCKASGYTFTDYFIHWVRQAPGQGPEWMGWINPDSGATNYAQQFQGRVTMTRDTSISATYMEMSRLRSDDTAVFYCARDKDGSGWYLDDWGQGTLVTVSS VL: EIVLTQSPATLSLSPGERATLSCRASQSVNIYLAWYQQKPGQAPRLLIYDASNRASGIPARFSGSGSGTDFTLTISSLEPEDFAVYYCQQRSNWPPSITFGQGTRLEIK | 7.8e-10 | 1.9e-10 | 1.1e-06 | 1.5e-09 | 2.7e-10 | 5e-11 | 1.4e-10 | 0.37 | 0.26 | 0.58 | 0.49

Continued, values first:

Row | Inhibition of IFN-gamma Release IC50; Donor 1 [1] [Molar] | Inhibition of IFN-gamma Release IC50; Donor 2 [1] [Molar] | Inhibition of IFN-gamma Release IC50; Donor 3 [1] [Molar] | Inhibition of IFN-gamma Release IC50; Donor 4 [1] [Molar] | Inhibition of IFN-gamma Release IC50; Donor 5 [1] [Molar] | Inhibition of IFN-gamma Release IC50; Donor 6 [2] [Molar] | Inhibition of IFN-gamma Release IC50; Donor 7 [2] [Molar] | IC50 [3] [nM] | IC50 [4] [nM] | IC50 [5] [nM] | IC50 [6] [nM] | Binder
3 | 2e-11 | 2.8e-11 | 7.2e-11 | 4.8e-11 | 1.1e-11 |  |  | 0.017 |  | 0.014 |  | H2M1712N (antibody, mouse IgG2, V domains shown, Human variable domains, mouse IgG2 Fc (H2M)) VH: QIQLVQSGAEMKRPGTSVKVSCKASGYTFSSYGINWVRQAPGQGLEWMGWISAYNGDTNYAQKLQGRVTMTTDTSTTTAYMEVRSLRSDDTAVYYCARFLTGTKDLYYGMDVWGQGTTVTVSS VL: DIQMTQSPSSLSASVGDRVTITCQASQDISNFLNWYQQKPGKAPDLLINDASILETGVPSRFSGSGSGTDFTLTINSLQPEDIATYYCQQYDNLPLTFGGGTKVEIK
4 | 9.1e-11 | 4.6e-10 | 8.3e-11 | 4.8e-10 | 9.4e-11 |  |  | 0.22 |  | 0.49 |  | H2M1811N (antibody, mouse IgG2, V domains shown, Human variable domains, mouse IgG2 Fc (H2M)) VH: QVQLVQSGAEAREPGASVRVSCKASGYTFTDYFIHWVRQAPGQGLEWMGWINPNSGATNFAQKFQGRVTMTRDTSLITAYMDLSRLKSDDAAVFYCARDVDGSGWYLDFWGQGTLVTVSS VL: EIVLTQSPATLSLSPGERATLSCRASQSVSIYLAWYQQKPGQAPRLLIYDASNRATGIPARFSGSGSGTDFTLTISRLEPEDFAVYYCQQRSDWPPSITFGQGTRLEIK
